Data taken from publication PMC4889922.
Where no end group is shown, it is not given here. [ ]: non-standard residue; d: D form. pS = N[C@@H](COP(=O)(O)O)C(=O)O

What was measured:
[1] = target: SHARP (human SPOC domain) SPOC domain, 3477-3664 (UniProt Q96T58); assay: anti-Flag co-IP, NCoR blot; conditions: reference: NCoR-C wild type; sites S2449,S2451
ITC = substrate: SPOC domain from murine SHARP, residues 3474-3643 (mouse) (UniProt Q62504); assay: ITC

Row | Molecule | binding against the reference [1] | Kd (ITC) [nM]
1 | NCoR NCoR-C, 1942-2453 (from UniProt Q60974) NCoR-C S2449A/S2451A | lost | 
2 | REPAPLLSAQYETL[pS]D[pS]DD [NCoR C-terminal peptide, double-phosphorylated] |  | 50
